Consider one substance from publication PMC10191332.

The target of the test is recombinant His-gH/gL (HCMV), purified (HCMV) (UniProt P12824). The test can be described thus: BLI.

Regarding “EphA2 extracellular domain (27-534), purified (from UniProt P29317 27-534) (domain or fragment)”, the Kd (as a rule, a measure of binding affinity in units of concentration) was 36.4 nM.
